We go through five substances from PMC11449375.

A word on the stoichiometry N: it is the number of molecules, sites or subunits per partner or assembly.

Assay [1] deals with AMC016 SOSIP.v9 (HIV-1 clade B, AMC016). In words: negative-stain EM; purified SOSIPs incubated with Adjuplex, on carbon-covered copper grids, 2% uranyl formate; 2D class averages.
Assay [2] shares this target. In words: native gel or EMSA; Blue Native-PAGE of the purified SOSIP.v9 proteins, 3-12% Bis-Tris NuPAGE gel, 2 ug protein, Colloidal blue stain. (In EMSA bound probe runs differently from free probe, usually more slowly.)
In assay [3] the target is AMC011 SOSIP.v9 (HIV-1 clade B, AMC011). In words: negative-stain EM; purified SOSIPs incubated with Adjuplex, on carbon-covered copper grids, 2% uranyl formate; 2D class averages.
Assay [4] shares this target. As to the kind of experiment: native gel or EMSA; Blue Native-PAGE of the purified SOSIP.v9 proteins, 3-12% Bis-Tris NuPAGE gel, 2 ug protein, Colloidal blue stain.
Assay [5] concerns the target AMC008 SOSIP.v9 (HIV-1 clade B, AMC008). As to the kind of experiment: negative-stain EM; purified SOSIPs incubated with Adjuplex, on carbon-covered copper grids, 2% uranyl formate; 2D class averages.
Assay [6] has the same target. In words: native gel or EMSA; Blue Native-PAGE of the purified SOSIP.v9 proteins, 3-12% Bis-Tris NuPAGE gel, 2 ug protein, Colloidal blue stain.
The target of assay [7] is TRO.11 SOSIP.v9 (HIV-1 clade B, TRO.11). In words: negative-stain EM; purified SOSIPs incubated with Adjuplex, on carbon-covered copper grids, 2% uranyl formate; 2D class averages.
Assay [8] has the same target. In words: native gel or EMSA; Blue Native-PAGE of the purified SOSIP.v9 proteins, 3-12% Bis-Tris NuPAGE gel, 2 ug protein, Colloidal blue stain.
Assay [9] deals with AMC009 SOSIP.v9 (HIV-1 clade B, AMC009). In words: negative-stain EM; purified SOSIPs incubated with Adjuplex, on carbon-covered copper grids, 2% uranyl formate; 2D class averages.
For assay [10] the target is unchanged. As to the kind of experiment: native gel or EMSA; Blue Native-PAGE of the purified SOSIP.v9 proteins, 3-12% Bis-Tris NuPAGE gel, 2 ug protein, Colloidal blue stain.

As for AMC016 SOSIP.v9 (complex), the stoichiometry N in assay [1] and in assay [2] was 3 throughout.

As for AMC011 SOSIP.v9 (complex), the stoichiometry N in [3] and in [4] was 3 each time.

Take AMC008 SOSIP.v9 (complex): the stoichiometry N in [5] and in [6] was 3 each time.

Consider TRO.11 SOSIP.v9 (complex), for which the stoichiometry N in assay [7] and in [8] was 3 throughout.

With AMC009 SOSIP.v9 (complex), the stoichiometry N in assay [9] and in assay [10] was 3 throughout.
